B1: Chicken TFPI-Fc (Fc fusion)
chain: TDDSDGEEEDVLGVPLPPLKLGHSDCALKADEGPCKAIHVRFYFNIQSRECEIFEYGGCHGNANNFLTLEECQNKCVVTELPLEVMLAKNEREKPNFCYQEKDPGICRGFFSRYFYNKETKICEIFKYGGCLGNQNNFKSLEECQTTCQGNPNLLSVAPDEEHPNHMNSSSPEEERNQFPGIVE
B2: mTFPI-Fc (Fc-tagged mouse TFPI) (Fc fusion)
chain: LSEEADDTDSELGSMKPLHTFCAMKADDGPCKAMIRSYFFNMYTHQCEEFIYGGCEGNENRFDTLEECKKTCIPGYEKTAVKAASGAERPDFCFLEEDPGLCRGYMKRYLYNNQTKQCERFVYGGCLGNRNNFETLDECKKICENPVHSPSPVNEVQMSDYVTDGNTVTDRSTVNNIVVPQSPKVPRRR

What all share (assay): BLI
The target of experiment [1] is TcdB10.1_(1285-1804) ( | Clostridioides difficile).
Experiment [2] deals with B1.
The target of experiment [3] is TFPI-Fc (human IgG-Fc-tagged TFPI without the GPI anchor) (human, UniProt P10646 29-209).
TFPI-Fc (human IgG-Fc-tagged TFPI without the GPI anchor), sequence (P10646 29-209): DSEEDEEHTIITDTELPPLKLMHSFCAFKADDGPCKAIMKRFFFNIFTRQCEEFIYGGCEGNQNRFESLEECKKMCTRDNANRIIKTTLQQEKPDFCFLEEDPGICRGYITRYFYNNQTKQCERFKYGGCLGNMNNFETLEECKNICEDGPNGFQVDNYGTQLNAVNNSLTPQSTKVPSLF
For experiment [4], the target named is B1.
Experiment [5] deals with B2.

In experiment [1], B1 registered a Kd of 70.5 nM and a koff of 0.006 s⁻¹.
In experiment [1], B2 gave a dissociation constant Kd of 465 nM and a dissociation rate constant (koff) of 0.00637 s⁻¹.

B3: TcdB4.2_(1286-1805) (domain or fragment)
chain: TNIRISLDSNTRSFIVPVITTEYIREKLSYSFYGSGGTYALSLSQYNMNINIELNENDTWVIDVDNVVRDVTIESDKIKKGDLIENILSKLSIEDNKIILDNHEINFSGTLNGGNGFVSLTFSILEGINAVIEVDLLSKSYKVLISGELKTLMANSNSVQQKIDYIGLNSELQKNIPYSFMDDEGKENGFINCFTKEGLFVSELSDVVLIIKVYMDNSKPPFGYYSNDLKDVKVITKDDVIIITGYYLKDDIKISLSFTIQDKNTIKLNGVYLDENGVAEILKFMNKKGSTNTSDSLMSFLESMNIKSIFIKSLKSNAKLILDTNFIISGTTFIGQFEFICDKDNNIQPYFIKFNTLETKYTLYVGNRQNMIVEPNYNLDDSGDISSTVINFSQKYLYGIDSCVNKVVISPGIYTDEINITPVHEANNTYPEVIVLDTNYISEKINININDLSIRYVWSNDGSDFILMSTDEENKVSQVKIRFTNVFKGNTISDKISFNFSDKQDISINKIISTFTPSYY
In the case of B3, the affinity in experiment [2], expressed as Kd, was 336 nM. Besides, the results for the off-rate (koff) in experiment [3], in experiment [4] and in experiment [5] were 0.00708 s⁻¹, 0.00885 s⁻¹ and 0.00344 s⁻¹, respectively.

The values are drawn from paper PMC9646764 (2022).
